Results on 18 molecules are retold here after patent publication US20130133089A1 (MEDICAL RESEARCH INFRASTRUCTURE AND HEALTH SERVICES FUND OF …, published 2013).

Where two headings read alike, the source gives them in different places.

Assay [1] deals with long form of human leptin receptor (hLEPR) on BAF/3 or H-49 (HEK-293) cells (human) (UniProt P48357). Put plainly: cell-based or functional assay.
Assay [2] addresses Recombinant human leptin binding domain (hLBD) (human) (UniProt P48357). Briefly: competitive plate binding assay: immobilized hLBD, biotinylated mouse leptin as ligand, mutein as competitor.
Assay [3] concerns the target T1, Recombinant human leptin binding domain (hLBD) (human, UniProt P48357 428-635, biotinylated with Sulfo-NHS-LC-Biotin in the yeast display assays; not labelled when immobilized in the plate binding assay).
T1 construct: CRH2 sub-domain of the leptin receptor; Prepared in the applicants' laboratory; also called soluble human leptin receptor; CHR2
T1 sequence (looked up): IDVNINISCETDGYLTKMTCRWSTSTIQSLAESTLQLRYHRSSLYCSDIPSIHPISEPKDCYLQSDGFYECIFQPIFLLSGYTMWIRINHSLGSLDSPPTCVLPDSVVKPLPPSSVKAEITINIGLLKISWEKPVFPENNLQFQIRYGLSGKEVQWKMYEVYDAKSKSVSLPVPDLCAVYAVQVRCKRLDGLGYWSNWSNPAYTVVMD
Put plainly: competitive plate binding assay on immobilized hLBD (FIG. 12C). The procedure: (§1) Biotinylated mouse leptin served as the ligand in all competitive experiments and the respective mouse leptin or mouse or human leptin antagonist muteins as competitors. The hLBD was used as the receptor source. Polystyrene 96-well microtiter plates were coated overnight at 4° C. with 100 μl of 40 μM hLBD in PBS pH 7.4. Wells were then washed one time with PBST (PBS containing 0.05 Tween 20) and blocked with PBS containing 3% skim milk for two hours in room temperature. All further incubations were carried out at room temperature. Wells were washed one time with PBST and incubated with different concentrations of un-labeled leptins (50 μl/well) for 30 min and then 50 μl of 62.5 μM of biotinylated mouse leptin were added to each well for another two hours. Then the wells were washed three times with PBST and incubated with 1:30,000 streptavidin-HRP in PBS containing 1 Tween 20 for one hour. Subsequently the wells were washed three times with PBST and the reaction was quantified in 450 nm by microplate reader ELISA Plate Reader ELx808—Bio-Tek Instrument Inc. (Winooski, Vt., USA) using TMB according to manufacturer's instructions.

The target of assay [4] is T1, Recombinant human leptin binding domain …. Briefly: competitive plate binding assay on immobilized hLBD, representative experiment (FIG. 7D). The procedure:
as §1

Assay [5] shares this target. Briefly: competitive plate binding assay: immobilized hLBD, biotinylated mouse leptin as ligand, mutein as competitor. The procedure: as §1
Assay [6] concerns the target long form of human leptin receptor (hLEPR) on BAF/3 or H-49 (HEK-293) cells (human), P48357. Briefly: cell-based or functional assay.
Assay [7] addresses T1, Recombinant human leptin binding domain …. Put plainly: competitive plate binding assay: immobilized hLBD, biotinylated mouse leptin as ligand, mutein as competitor. The procedure: as §1
The source holds these as a separate data set.

For assay [8] the target is unchanged. Put plainly: competitive plate binding assay on immobilized hLBD. The procedure: as §1

Chain of long form of human leptin receptor (hLEPR) on BAF/3 or H-49 (HEK-293) cells (human), P48357 (P48357 22-1165): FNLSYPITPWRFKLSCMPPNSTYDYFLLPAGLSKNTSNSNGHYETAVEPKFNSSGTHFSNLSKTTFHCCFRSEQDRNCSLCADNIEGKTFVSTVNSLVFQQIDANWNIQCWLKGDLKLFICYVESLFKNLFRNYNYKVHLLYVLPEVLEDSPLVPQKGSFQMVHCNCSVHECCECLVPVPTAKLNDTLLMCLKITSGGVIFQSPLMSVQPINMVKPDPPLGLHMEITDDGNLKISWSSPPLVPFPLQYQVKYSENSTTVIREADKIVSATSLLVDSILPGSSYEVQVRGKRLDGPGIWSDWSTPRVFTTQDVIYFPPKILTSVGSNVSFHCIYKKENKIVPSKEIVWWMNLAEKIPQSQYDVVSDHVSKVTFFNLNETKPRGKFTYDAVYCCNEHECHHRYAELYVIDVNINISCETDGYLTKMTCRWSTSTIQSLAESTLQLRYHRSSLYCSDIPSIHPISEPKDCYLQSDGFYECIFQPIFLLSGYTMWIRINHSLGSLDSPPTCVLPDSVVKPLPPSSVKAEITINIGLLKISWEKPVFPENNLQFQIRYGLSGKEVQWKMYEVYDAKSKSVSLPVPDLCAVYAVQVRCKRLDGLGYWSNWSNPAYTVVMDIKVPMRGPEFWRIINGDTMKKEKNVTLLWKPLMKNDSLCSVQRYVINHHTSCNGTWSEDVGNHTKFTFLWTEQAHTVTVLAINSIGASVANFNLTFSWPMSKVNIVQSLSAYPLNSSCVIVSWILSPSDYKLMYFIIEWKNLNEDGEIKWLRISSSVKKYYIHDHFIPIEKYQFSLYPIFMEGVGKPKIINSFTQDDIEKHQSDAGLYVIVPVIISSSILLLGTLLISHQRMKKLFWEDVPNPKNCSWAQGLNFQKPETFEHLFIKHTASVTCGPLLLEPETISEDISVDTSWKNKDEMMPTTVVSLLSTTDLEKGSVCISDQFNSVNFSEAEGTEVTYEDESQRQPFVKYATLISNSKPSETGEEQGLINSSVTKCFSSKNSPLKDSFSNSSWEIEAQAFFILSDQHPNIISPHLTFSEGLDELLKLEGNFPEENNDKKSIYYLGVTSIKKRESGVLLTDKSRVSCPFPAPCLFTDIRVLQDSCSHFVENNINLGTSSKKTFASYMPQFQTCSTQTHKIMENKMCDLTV
Chain of long form of human leptin receptor (hLEPR) on BAF/3 or H-49 (HEK-293) cells (human) (P48357 22-1165): as above

As to “recombinant mouse leptin mutein H7 (K11R, Q34R, T37A, F92C, S97Y, I136V), agonist (from UniProt P41160 22-167) (ligand)”, in assay [1], the BAF/3 bioassay: fold increase in bioactivity as compared to the WT mouse leptin turned out to be 0.5 fold and the Luciferase bioassay: fold increase in bioactivity as compared to the WT mouse leptin amounted to 0.3 fold. In assay [2], the fold increase in affinity as compared to the WT mouse leptin came to 0.83 fold.

B1: human leptin super antagonist (SHLA), human leptin D23L/L39A/D40A/F41A (ligand)
chain: VPIQKVQDDTKTLIKTIVTRINLISHTQSVSSKQKVTGAAAIPGLHPILTLSKMDQTLAVYQQILTSMPSQNVIQISNDLENLRDLLHVLAFSKSCHLPWASGLETLDSLGGVLEASGYSTEVVALSRLQGSLQDMLWQLDLSPGC
notes: also called super active human leptin antagonist
B1: in assay [3], the “fold increase in the affinity due to D23L mutation (against HLA)” value worked out at 44 fold.

B2: pegylated superactive mouse leptin antagonist (PEG-SMLA) (ligand)
chain: VPIQKVQDDTKTLIKTLVTRINLISHTQSVSAKQRVTGAAAIPGLHPILSLSKMDQTLAVYQQVLTSLPSQNVLQIANDLENLRDLLHLLAFSKSCSLPQTSGLQKPESLDGVLEASLYSTEVVALSRLQGSLQDILQQVDLSPGC
modifications: mPEG-propionyl-ALD 20 kDa, preferentially on the N-terminal amino group (85% monopegylated, ~9% double pegylated)
notes: also called pegylated SMLA; superANT
For B2, the “fold reduction in affinity as compared to the non-pegylated SMLA” value in assay [4] came out at 6.2 fold.

B3: superactive mouse leptin antagonist (SMLA), D23L/L39A/D40A/F41A mouse leptin (ligand)
chain: VPIQKVQDDTKTLIKTLVTRINLISHTQSVSAKQRVTGAAAIPGLHPILSLSKMDQTLAVYQQVLTSLPSQNVLQIANDLENLRDLLHLLAFSKSCSLPQTSGLQKPESLDGVLEASLYSTEVVALSRLQGSLQDILQQVDLSPGC
notes: also called D23L MLA; super active MLA
As for B3, the “fold increase in affinity as compared to the WT mouse leptin antagonist” value in assay [5] worked out at 64 fold.

B4: mouse leptin antagonist D23G/L39A/D40A/F41A (ligand)
chain: AVPIQKVQDDTKTLIKTIVTRINGISHTQSVSAKQRVTGAAAIPGLHPILSLSKMDQTLAVYQQVLTSLPSQNVLQIANDLENLRDLLHLLAFSKSCSLPQTSGLQKPESLDGVLEASLYSTEVVALSRLQGSLQDILQQLDVSPEC
notes: mature
Consider B4, for which the “fold increase in affinity as compared to the WT mouse leptin antagonist” value in assay [5] is 17.5 fold. The BAF/3 bioassay: fold increase in bioactivity as compared to the WT mouse leptin antagonist in assay [6] turned out to be 2.5 fold.

B5: recombinant mouse leptin mutein H19 (D23G, T37A, G44D), agonist (ligand)
chain: AVPIQKVQDDTKTLIKTIVTRINGISHTQSVSAKQRVAGLDFIPDLHPILSLSKMDQTLAVYQQVLTSLPSQNVLQIANDLENLRDLLHLLAFSKSCSLPQTSGLQKPESLDGVLEASLYSTEVVALSRLQGSLQDILQQLDVSPEC
notes: mature
Turning to B5, in assay [6], the BAF/3 bioassay: fold increase in bioactivity as compared to the WT mouse leptin came out at 0.9 fold and the Luciferase bioassay: fold increase in bioactivity as compared to the WT mouse leptin was found to be 1.5 fold. In assay [7], the “fold increase in affinity as compared to the WT mouse leptin” value came out at 10.4 fold.

B6: recombinant mouse leptin mutein H22 (T12I), agonist (ligand)
chain: AVPIQKVQDDTKILIKTIVTRINDISHTQSVSAKQRVTGLDFIPGLHPILSLSKMDQTLAVYQQVLTSLPSQNVLQIANDLENLRDLLHLLAFSKSCSLPQTSGLQKPESLDGVLEASLYSTEVVALSRLQGSLQDILQQLDVSPEC
notes: mature
On to B6, for which the “fold increase in affinity as compared to the WT mouse leptin” value in assay [7] worked out at 11.7 fold.

B7: recombinant mouse leptin mutein H30 (D23H), agonist (ligand)
chain: AVPIQKVQDDTKTLIKTIVTRINHISHTQSVSAKQRVTGLDFIPGLHPILSLSKMDQTLAVYQQVLTSLPSQNVLQIANDLENLRDLLHLLAFSKSCSLPQTSGLQKPESLDGVLEASLYSTEVVALSRLQGSLQDILQQLDVSPEC
notes: mature
In the case of B7, in assay [6], the BAF/3 bioassay: fold increase in bioactivity as compared to the WT mouse leptin is 0.3 fold and the Luciferase bioassay: fold increase in bioactivity as compared to the WT mouse leptin worked out at 0.6 fold. Besides, the “fold increase in affinity as compared to the WT mouse leptin” value in assay [7] was 35 fold.

B8: recombinant mouse leptin mutein H12 (S97Y), agonist (ligand)
chain: AVPIQKVQDDTKTLIKTIVTRINDISHTQSVSAKQRVTGLDFIPGLHPILSLSKMDQTLAVYQQVLTSLPSQNVLQIANDLENLRDLLHLLAFSKSCYLPQTSGLQKPESLDGVLEASLYSTEVVALSRLQGSLQDILQQLDVSPEC
notes: mature
On to B8, for which the “fold increase in affinity as compared to the WT mouse leptin” value in assay [7] was 1.5 fold.

B9: mouse leptin antagonist D23R/L39A/D40A/F41A (ligand)
chain: AVPIQKVQDDTKTLIKTIVTRINRISHTQSVSAKQRVTGAAAIPGLHPILSLSKMDQTLAVYQQVLTSLPSQNVLQIANDLENLRDLLHLLAFSKSCSLPQTSGLQKPESLDGVLEASLYSTEVVALSRLQGSLQDILQQLDVSPEC
notes: mature; also called D23R MLA
Turning to B9, the “fold increase in affinity as compared to the WT mouse leptin antagonist” value in assay [5] was determined as 51 fold. Further, the BAF/3 bioassay: fold increase in bioactivity as compared to the WT mouse leptin antagonist in assay [6] was determined as 8.6 fold.

B10: mouse leptin antagonist D23A/L39A/D40A/F41A (ligand)
chain: AVPIQKVQDDTKTLIKTIVTRINAISHTQSVSAKQRVTGAAAIPGLHPILSLSKMDQTLAVYQQVLTSLPSQNVLQIANDLENLRDLLHLLAFSKSCSLPQTSGLQKPESLDGVLEASLYSTEVVALSRLQGSLQDILQQLDVSPEC
notes: mature
With B10, the “fold increase in affinity as compared to the WT mouse leptin antagonist” value in assay [5] stood at 21 fold. This molecule also gave a BAF/3 bioassay: fold increase in bioactivity as compared to the WT mouse leptin antagonist in assay [6] of 3.3 fold.

B11: recombinant mouse leptin mutein H15 (D23G, L68M, S97F, S132Y), agonist (ligand)
chain: AVPIQKVQDDTKTLIKTIVTRINGISHTQSVSAKQRVTGLDFIPGLHPILSLSKMDQTLAVYQQVLTSMPSQNVLQIANDLENLRDLLHLLAFSKSCFLPQTSGLQKPESLDGVLEASLYSTEVVALSRLQGYLQDILQQLDVSPEC
notes: mature
With B11, the “fold increase in affinity as compared to the WT mouse leptin” value in assay [7] was 9.7 fold.

B12: pegylated mouse leptin antagonist (PEG-MLA) (ligand)
chain: AVPIQKVQDDTKTLIKTIVTRINDISHTQSVSAKQRVTGAAAIPGLHPILSLSKMDQTLAVYQQVLTSLPSQNVLQIANDLENLRDLLHLLAFSKSCSLPQTSGLQKPESLDGVLEASLYSTEVVALSRLQGSLQDILQQLDVSPEC
modifications: pegylated (method previously described for MLA; 20 kDa PEG, site not restated here)
notes: mature; also called pegylated-MLA
As to B12, the “fold reduction in affinity by pegylation, as compared to MLA” value in assay [8] worked out at 6.3 fold.

B13: mouse leptin antagonist D23K/L39A/D40A/F41A (ligand)
chain: AVPIQKVQDDTKTLIKTIVTRINKISHTQSVSAKQRVTGAAAIPGLHPILSLSKMDQTLAVYQQVLTSLPSQNVLQIANDLENLRDLLHLLAFSKSCSLPQTSGLQKPESLDGVLEASLYSTEVVALSRLQGSLQDILQQLDVSPEC
notes: mature
With B13, the “fold increase in affinity as compared to the WT mouse leptin antagonist” value in assay [5] was found to be 19 fold. In assay [6], the BAF/3 bioassay: fold increase in bioactivity as compared to the WT mouse leptin antagonist came out at 3.7 fold.

B14: mouse leptin antagonist D23H/L39A/D40A/F41A (ligand)
chain: AVPIQKVQDDTKTLIKTIVTRINHISHTQSVSAKQRVTGAAAIPGLHPILSLSKMDQTLAVYQQVLTSLPSQNVLQIANDLENLRDLLHLLAFSKSCSLPQTSGLQKPESLDGVLEASLYSTEVVALSRLQGSLQDILQQLDVSPEC
notes: mature; also called H30 (antagonist); D23H MLA
As for B14, the “fold increase in affinity as compared to the WT mouse leptin antagonist” value in assay [5] was 34 fold. In assay [6], this molecule gave a BAF/3 bioassay: fold increase in bioactivity as compared to the WT mouse leptin antagonist of 5 fold and a Luciferase bioassay: fold increase in bioactivity as compared to the WT mouse leptin antagonist of 5.7 fold. The “fold increase in affinity as compared to the WT mouse leptin antagonist” value in assay [7] came to 34 fold.

B15: mouse leptin antagonist D23W/L39A/D40A/F41A (ligand)
chain: AVPIQKVQDDTKTLIKTIVTRINWISHTQSVSAKQRVTGAAAIPGLHPILSLSKMDQTLAVYQQVLTSLPSQNVLQIANDLENLRDLLHLLAFSKSCSLPQTSGLQKPESLDGVLEASLYSTEVVALSRLQGSLQDILQQLDVSPEC
notes: mature
Turning to B15, the “fold increase in affinity as compared to the WT mouse leptin antagonist” value in assay [5] came out at 36 fold. The BAF/3 bioassay: fold increase in bioactivity as compared to the WT mouse leptin antagonist in assay [6] is 4.2 fold.

B16: recombinant mouse leptin mutein H16 (D23G, G112S), agonist (ligand)
chain: AVPIQKVQDDTKTLIKTIVTRINGISHTQSVSAKQRVTGLDFIPGLHPILSLSKMDQTLAVYQQVLTSLPSQNVLQIANDLENLRDLLHLLAFSKSCSLPQTSGLQKPESLDSVLEASLYSTEVVALSRLQGSLQDILQQLDVSPEC
notes: mature
For B16, in assay [6], the BAF/3 bioassay: fold increase in bioactivity as compared to the WT mouse leptin was 0.8 fold and the Luciferase bioassay: fold increase in bioactivity as compared to the WT mouse leptin came to 0.9 fold. The “fold increase in affinity as compared to the WT mouse leptin” value in assay [7] came to 20.3 fold.

B17: mouse leptin antagonist D23F/L39A/D40A/F41A (ligand)
chain: AVPIQKVQDDTKTLIKTIVTRINFISHTQSVSAKQRVTGAAAIPGLHPILSLSKMDQTLAVYQQVLTSLPSQNVLQIANDLENLRDLLHLLAFSKSCSLPQTSGLQKPESLDGVLEASLYSTEVVALSRLQGSLQDILQQLDVSPEC
notes: mature
With B17, the “fold increase in affinity as compared to the WT mouse leptin antagonist” value in assay [5] stood at 28 fold. The BAF/3 bioassay: fold increase in bioactivity as compared to the WT mouse leptin antagonist in assay [6] was 3.7 fold.
